# In the supplement of paper PMC10567573:
# B1: PTPLAD1 (parent)
# chain: YINFRHLYKQRRRRYGQKKKKIH
# Variants of: B1
# Assay: protein stability index of a GFP-peptide fusion (GPS, HEK-293T) (PSI 1-6); higher = more stable
# Details: c terminus: native
# 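Also: lentivirally expressed fusions sorted by FACS into six bins by GFP to DsRed ratio, PSI derived from sequencing read proportions per bin multiplied by bin number.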
row,Variant,protein stability index
1,YINFRHLYKQRRRRYIQKKKKIH,2.21
2,YINFRHLYKQRRRRYMQKKKKIH,2.27
3,YINFRHLYKQRRRRYLQKKKKIH,2.23
4,YINFRHLYKQRRRRYAQKKKKIH,2.54
5,YINFRHLYKQRRRRYNQKKKKIH,1.4
6,YINFRHLYKQRRRRYYQKKKKIH,1.25
7,YINFRHLYKQRRRRYWQKKKKIH,2.76
8,YINFRHLYKQRRRRYFQKKKKIH,1.6
9,YINFRHLYKQRRRRYHQKKKKIH,1.35
10,YINFRHLYKQRRRRYEQKKKKIH,1.85
11,YINFRHLYKQRRRRYDQKKKKIH,2.6
12,YINFRHLYKQRRRRYKQKKKKIH,2.57
13,YINFRHLYKQRRRRYTQKKKKIH,2.88
14,YINFRHLYKQRRRRYQQKKKKIH,1.56
15,YINFRHLYKQRRRRYCQKKKKIH,2.27
16,YINFRHLYKQRRRRYRQKKKKIH,1.74
17,YINFRHLYKQRRRRYPQKKKKIH,1.66
18,YINFRHLYKQRRRRYGQVKKKIH,2.29
19,YINFRHLYKQRRRRYGQYKKKIH,2.39
20,YINFRHLYKQRRRRYGQRKKKIH,1.97
21,YINFRHLYKQRRRRYGQWKKKIH,2.22
22,YINFRHLYKQRRRRYGQQKKKIH,1.56
23,YINFRHLYKQRRRRYGQNKKKIH,1.96
24,YINFRHLYKQRRRRYGQEKKKIH,2.17
25,YINFRHLYKQRRRRYGQFKKKIH,2.46

row,Variant,protein stability index
1,YINFRHLYKQRRRRYGQCKKKIH,2.62
2,YINFRHLYKQRRRRYGQDKKKIH,2.44
3,YINFRHLYKQRRRRYGQPKKKIH,1.52
4,YINFRHLYKQRRRRYGQLKKKIH,2.42
5,YINFRHLYKQRRRRYGQIKKKIH,2.86
6,YINFRHLYKQRRRRYGQMKKKIH,1.78
7,YINFRHLYKQRRRRYGQGKKKIH,1.91
8,YINFRHLYKQRRRRYGQTKKKIH,2.19
9,YINFRHLYKQRRRRYGQAKKKIH,2.15
10,YINFRHLYKQRRRRYGQSKKKIH,1.65
11,YINFRHLYKQRRRRYGQKKDKIH,3.01
12,YINFRHLYKQRRRRYGQKKQKIH,1.46
13,YINFRHLYKQRRRRYGQKKCKIH,1.83
14,YINFRHLYKQRRRRYGQKKSKIH,1.69
15,YINFRHLYKQRRRRYGQKKNKIH,1.89
16,YINFRHLYKQRRRRYGQKKHKIH,2.35
17,YINFRHLYKQRRRRYGQKKAKIH,2.05
18,YINFRHLYKQRRRRYGQKKRKIH,1.82
19,YINFRHLYKQRRRRYGQKKEKIH,1.66
20,YINFRHLYKQRRRRYGQKKGKIH,2.77
21,YINFRHLYKQRRRRYGQKKPKIH,2
22,YINFRHLYKQRRRRYGQKKWKIH,1.91
23,YINFRHLYKQRRRRYGQKKYKIH,3.24
24,YINFRHLYKQRRRRYGQKKFKIH,1.71
25,YINFRHLYKQRRRRYGQKKIKIH,2.92

row,Variant,protein stability index
1,YINFRHLYKQRRRRYGQKKTKIH,1.99
2,YINFRHLYKQRRRRYGQKKMKIH,1.88
3,YINFRHLYKQRRRRGGQKKKKIH,2.14
4,YINFRHLYKQRRRREGQKKKKIH,4.57
5,YINFRHLYKQRRRRIGQKKKKIH,2.11
6,YINFRHLYKQRRRRTGQKKKKIH,1.69
7,YINFRHLYKQRRRRFGQKKKKIH,1.53
8,YINFRHLYKQRRRRCGQKKKKIH,2.22
9,YINFRHLYKQRRRRVGQKKKKIH,2.14
10,YINFRHLYKQRRRRDGQKKKKIH,2.48
11,YINFRHLYKQRRRRHGQKKKKIH,1.72
12,YINFRHLYKQRRRRMGQKKKKIH,1.37
13,YINFRHLYKQRRRRQGQKKKKIH,1.88
14,YINFRHLYKQRRRRRGQKKKKIH,2.85
15,YINFRHLYKQRRRRLGQKKKKIH,2
16,YINFRHLYKQRRRRSGQKKKKIH,1.74
17,YINFRHLYKQRRRRAGQKKKKIH,2.12
18,YINFRHLYKQRRRRWGQKKKKIH,2.59
19,YINFRHLYKQRRRRNGQKKKKIH,1.11
20,YINFRHLYKQRRRRKGQKKKKIH,2.33
21,YINFRHLYKQRRRRYGQKKKKIE,1.04
22,YINFRHLYKQRRRRYGQKKKKIK,1.58
23,YINFRHLYKQRRRRYGQKKKKIC,1.05
24,YINFRHLYKQRRRRYGQKKKKIT,3.73
25,YINFRHLYKQRRRRYGQKKKKIV,2.58

row,Variant,protein stability index
1,YINFRHLYKQRRRRYGQKKKKID,2.09
2,YINFRHLYKQRRRRYGQKKKKIF,1.11
3,YINFRHLYKQRRRRYGQKKKKIW,2.25
4,YINFRHLYKQRRRRYGQKKKKIS,1.48
5,YINFRHLYKQRRRRYGQKKKKIP,2.07
6,YINFRHLYKQRRRRYGQKGKKIH,2.15
7,YINFRHLYKQRRRRYGQKEKKIH,1.57
8,YINFRHLYKQRRRRYGQKIKKIH,2.54
9,YINFRHLYKQRRRRYGQKAKKIH,2.04
10,YINFRHLYKQRRRRYGQKDKKIH,2.66
11,YINFRHLYKQRRRRYGQKYKKIH,2.12
12,YINFRHLYKQRRRRYGQKMKKIH,2.31
13,YINFRHLYKQRRRRYGQKWKKIH,2.02
14,YINFRHLYKQRRRRYGQKRKKIH,1.91
15,YINFRHLYKQRRRRYGQKSKKIH,2.07
16,YINFRHLYKQRRRRYGQKQKKIH,2.09
17,YINFRHLYKQRRRRYGQKLKKIH,3.09
18,YINFRHLYKQRRRRYGQKTKKIH,1.96
19,YINFRHLYKQRRRRYGQKNKKIH,1.62
20,YINFRHLYKQRRRRYGQKFKKIH,2.25
21,YINFRHLYKQRRRRYGQKHKKIH,2.49
22,YINFRHLYKQRRRRYGQKPKKIH,1.95
